Read-outs that look alike come from different tables or passages of the source.
Legend:
B. cenocepacia [1] = type: cell-based, Burkholderia cenocepacia; conditions: B. cenocepacia (15); 2-hour treatment
Description: (§1) The MBEC (after 2-hour treatments) was determined as described in Jones and Wozniak, PsI Produced by Mucoid Pseudomonas aeruginosa Contributes to the Establishment of Biofilms and Immune Evasion, Am. Soc. Microbiol. 2017, 8(3):e00864-17. Meropenem and tobramycin were included as controls and were both poorly active, with MBEC90 values of >256 μg/mL (data not shown).

A. dolens = experiment: MIC by broth microdilution against A. dolens; type: cell-based, Achromobacter dolens; conditions: A. dolens isolates
Description: (§2) MIC values were determined using a modification of the standard broth microdilution reference method defined by the Clinical and Laboratory Standards Institute (CLSI), CLSL. 2015. Methods for Dilution Antimicrobial Susceptibility Tests for Bacteria That Grow Aerobically; Approved Standard-10th Edition. Clinical and Laboratory Standards Institute, Wayne, PA. The modification was based on the replacement of Mueller Hinton Broth with either CAA media (with and without NaCl) or CAA supplemented with 2.5% human serum. MIC is the minimum concentration of peptide sufficient to suppress at least 80% of the bacterial growth compared to control.
(§3) Based on these nine most prevalent strains, direct lytic agents, including GN370, AM1, AM2, and AM3, were evaluated against various isolates from each of the 9 strains. MICs and MBECs (Example 3) were determined, and a sputum inhibition test was conducted, as described below in Example 5.
(§4) The MICs for were determined as described below using the broth microdilution method for meropenem, GN370, AM1, AM2, and AM3. The results are shown below in Tables 8-12.

B. cenocepacia [2] = experiment: MIC by broth microdilution against B. cenocepacia; type: cell-based, Burkholderia cenocepacia
Description: as §2, §3, §4

P. apista [3] = experiment: MIC by broth microdilution against P. apista; type: cell-based, Pandoraea apista
Description: as §2, §3, §4

B. multivorans = experiment: MIC by broth microdilution against B. multivorans; type: cell-based, Burkholderia multivorans; conditions: B. multivorans isolates
Description: as §2, §3, §4

P. apista [4] = type: cell-based, Pandoraea apista; conditions: P. apista (15); 2-hour treatment
Description: as §1

[5] = Burkholderia cenocepacia, N 15 (Table 26)
[6] = Pandoraea apista, N 11 (Table 26)
[7] = MDR S. maltophilia isolates (n = 8)
[8] = Stenotrophomonas maltophilia, N 12 (Table 26)
[9] = all tested isolates, Tables 8-12
[10] = carbapenem-resistant S. maltophilia isolates (n = 21)
[11] = MDR P. aeruginosa isolates (n = 13)
[12] = Pseudomonas aeruginosa, AR Bank, N 67
[13] = Pseudomonas aeruginosa, Weill Cornell, N 55
[14] = Pseudomonas aeruginosa, all isolates, N 122
[15] = carbapenem-resistant P. aeruginosa isolates (n = 12)
[16] = mucoid P. aeruginosa isolates (n = 11)
[17] = α-hemolytic P. aeruginosa isolates (n = 13)

B1: GN370: lysin-AMP construct, SEQ ID NO: 149: MIDR, FIRL and NPTH moieties N-terminal to GN202 lysin (protein)
chain: MIDRFIRLNPTHGPRRPRRPGRRAPVRTSQRGIDLIKSFEGLRLSAYQDSVGVWTIGYGTTRGVTRYMTITVEQAERMLSNDIQRFEPELDRLAKVPLNQNQWDALMSFVYNLGAANLASSTLLDLLNKGDYQGAADQFPHWVNAGGKRLDGLVKRRAAERALFLEPLS
modifications: GN370 lysin
Work on B1 yielded an MBEC50 (B. cenocepacia [1]) of 256 µg/mL, an MIC50 (A. dolens) of 32 µg/mL and an MIC90 (A. dolens) of over 32 µg/mL. The MIC50 (B. cenocepacia [2]; B. cenocepacia isolates) was over 32 µg/mL, the MIC90 (B. cenocepacia [2]; B. cenocepacia isolates) was over 32 µg/mL and the MIC50 (B. cenocepacia [2]; [5]) was over 64 µg/mL. For the same molecule, the MIC90 (B. cenocepacia [2]; [5]) was over 64 µg/mL, the MIC50 (P. apista [3]; P. apista isolates) was over 32 µg/mL and the MIC90 (P. apista [3]; P. apista isolates) was over 32 µg/mL. For the same molecule, the MIC50 (P. apista [3]; [6]) was over 64 µg/mL, the MIC90 (P. apista [3]; [6]) was over 64 µg/mL and the “MIC Range” value (P. apista [3]; [6]) was over 64 µg/mL. For the same molecule, the MIC50 (S. maltophilia; [7]) was 0.25 µg/mL, the MIC90 (S. maltophilia; [7]) was 0.5 µg/mL and the “MIC Range” value (S. maltophilia; MDR S. maltophilia isolates (n = 8), in µg/mL) was 0.0625-0.5. For the same molecule, the MIC50 (S. maltophilia; S. maltophilia isolates) was 0.5 µg/mL, the MIC90 (S. maltophilia; S. maltophilia isolates) was 2 µg/mL and the “MIC Range” value (S. maltophilia; S. maltophilia isolates, in µg/mL) was 0.03-2. The MIC (S. maltophilia; S. maltophilia test organism of the sputum time-kill assay) was “GN370 (MIC = 0.5)”, the MIC50 (S. maltophilia; [8]) was 2 µg/mL and the MIC90 (S. maltophilia; [8]) was 8 µg/mL. For the same molecule, the “MIC Range” value (S. maltophilia; [8]) was 0.25 to 8 µg/mL, the “GN370 MIC” value (S. maltophilia; XDR S. maltophilia isolate AU29729) was 1 µg/mL and the “GN370 MIC” value (S. maltophilia; XDR S. maltophilia isolate AU29873) was 0.5 µg/mL. For the same molecule, the “GN370 MIC” value (S. maltophilia; XDR S. maltophilia isolate AU30243) was 1 µg/mL, the “GN370 MIC” value (S. maltophilia; XDR S. maltophilia isolate AU30793) was 1 µg/mL and the “GN370 MIC” value (S. maltophilia; XDR S. maltophilia isolate AU32079) was 0.03125 µg/mL. For the same molecule, the “GN370 MIC” value (S. maltophilia; XDR S. maltophilia isolate AU33199) was 0.0625 µg/mL, the “GN370 MIC” value (S. maltophilia; XDR S. maltophilia isolate AU33860) was 2 µg/mL and the “GN370 MIC” value (S. maltophilia; XDR S. maltophilia isolate AU33921) was 2 µg/mL. The “GN370 MIC” value (S. maltophilia; XDR S. maltophilia isolate AU34723) was 2 µg/mL, the “GN370 MIC” value (S. maltophilia; XDR S. maltophilia isolate AU35419) was 2 µg/mL and the “GN370 MIC” value (S. maltophilia; XDR S. maltophilia isolate AU35661) was 0.0625 µg/mL. The “GN370 MIC” value (S. maltophilia; XDR S. maltophilia isolate AU36631) was 0.5 µg/mL, the “GN370 MIC” value (S. maltophilia; XDR S. maltophilia isolate AU36888) was 0.25 µg/mL and the “GN370 MIC” value (S. maltophilia; XDR S. maltophilia isolate AU37239) was 1 µg/mL. The “GN370 MIC” value (S. maltophilia; XDR S. maltophilia isolate AU37260) was 0.5 µg/mL, the “GN370 MIC” value (S. maltophilia; XDR S. maltophilia isolate AU37689) was 0.25 µg/mL and the “GN370 MIC” value (S. maltophilia; XDR S. maltophilia isolate AU37737) was 2 µg/mL. For the same molecule, the MIC50 (S. maltophilia; XDR isolates of S. maltophilia) was 1 µg/mL, the MIC Range (S. maltophilia; XDR isolates of S. maltophilia, in µg/mL) was 0.03125-2 and the “activity (MIC) against S. maltophilia isolates” value (S. maltophilia; [9]) was “highly active”. The “GN370 MIC50” value (S. maltophilia; [10]) was 0.5 µg/mL, the “GN370 MIC90” value (S. maltophilia; [10]) was 2 µg/mL and the “GN370 MIC Range” value (S. maltophilia; carbapenem-resistant S. maltophilia isolates (n = 21), in µg/mL) was 0.03-2. It also gave an MIC50 (B. multivorans) of 16 µg/mL, an MIC90 (B. multivorans) of over 32 µg/mL and an MIC50 (P. aeruginosa; [11]) of 0.125 µg/mL. For the same molecule, the MIC90 (P. aeruginosa; [11]) was 0.5 µg/mL, the “MIC Range” value (P. aeruginosa; MDR P. aeruginosa isolates (n = 13), in µg/mL) was 0.0625-0.5 and the MIC (P. aeruginosa; P. aeruginosa ATCC 27853 (head of Table 19)) was 1 µg/mL. For the same molecule, the MIC (P. aeruginosa; P. aeruginosa PA25) was “PA25 (MIC = 2 μg/mL)”, the MIC90 (P. aeruginosa; P. aeruginosa clinical and resistant isolates) was 2 µg/mL and the MIC50 (P. aeruginosa; P. aeruginosa isolates) was 0.25 µg/mL. The MIC90 (P. aeruginosa; P. aeruginosa isolates) was 0.5 µg/mL, the “MIC Range” value (P. aeruginosa; P. aeruginosa isolates, in µg/mL) was 0.06-1 and the MIC (P. aeruginosa; P. aeruginosa test organism of the sputum time-kill assay) was “(MIC = 0.5)”. The MIC50 (P. aeruginosa; [12]) was 1 µg/mL, the MIC90 (P. aeruginosa; [12]) was 2 µg/mL and the “MIC Range” value (P. aeruginosa; [12]) was 0.25 to 2 µg/mL. The MIC50 (P. aeruginosa; [13]) was 1 µg/mL, the MIC90 (P. aeruginosa; [13]) was 2 µg/mL and the “MIC Range” value (P. aeruginosa; [13]) was 0.25 to 2 µg/mL. For the same molecule, the MIC50 (P. aeruginosa; [14]) was 1 µg/mL, the MIC90 (P. aeruginosa; [14]) was 2 µg/mL and the “MIC Range” value (P. aeruginosa; [14]) was 0.25 to 2 µg/mL. For the same molecule, the MIC (P. aeruginosa; XDR P. aeruginosa strain AR-769) was 2 µg/mL, the MIC (P. aeruginosa; […], before serial passage) was 1 µg/mL and the “activity (MIC) against P. aeruginosa isolates” value (P. aeruginosa; [9]) was “highly active”. The “GN370 MIC50” value (P. aeruginosa; [15]) was 0.25 µg/mL, the “GN370 MIC90” value (P. aeruginosa; [15]) was 0.5 µg/mL and the “GN370 MIC Range” value (P. aeruginosa; carbapenem-resistant P. aeruginosa isolates (n = 12), in µg/mL) was 0.0625-1. The MIC50 (P. aeruginosa; [16]) was 0.25 µg/mL, the MIC90 (P. aeruginosa; [16]) was 1 µg/mL and the “MIC Range” value (P. aeruginosa; mucoid P. aeruginosa isolates (n = 11), in µg/mL) was 0.0625-1. The MIC50 (P. aeruginosa; [17]) was 0.25 µg/mL, the MIC90 (P. aeruginosa; [17]) was 1 µg/mL and the “MIC Range” value (P. aeruginosa; α-hemolytic P. aeruginosa isolates (n = 13), in µg/mL) was 0.0625-1. The MBEC50 (P. apista [4]) was 32 µg/mL, the MBEC90 (P. apista [4]) was 64 µg/mL and the “MBEC Range” value (P. apista [4]) was 8 to 64 µg/mL.
